Holding throughout (assay): cell_activity
Data set [1] deals with CCR5 ZFN SBS#8266, wild-type ZC linker (artificial (zinc finger-FokI)). The following applies: average of 2; ZFN pair.
In data set [2] the test system is CCR5 ZFN SBS#8266, L6a linker (artificial (zinc finger-FokI)). As to conditions: average of 2; ZFN pair.
Data set [3] relates to rat IgM-targeted ZFN pair, ZC linker (artificial (zinc finger-FokI)). The following applies: rat C6 cells, CEL-I.
The subject of data set [4] is rat IgM-targeted ZFN pair, with L7a linker (artificial (zinc finger-FokI)). The following applies: rat C6 cells, CEL-I.
Data set [5] has as its system CCR5 ZFN SBS#8266, L7a linker (artificial (zinc finger-FokI)). The following applies: ZFN pair.
The test system of data set [6] is mROSA-targeted ZFN pair, Wt/L7a linkers (artificial (zinc finger-FokI)). The following applies: Neuro2A; mock 0.4.
Data set [7] deals with mROSA-targeted ZFN pair, Wt/Wt linkers (artificial (zinc finger-FokI)). As to conditions: Neuro2A; mock 0.4; repeats 23.2 and 18.7.

CCR5 ZFN SBS#8266, L6a linker (artificial (zinc finger-FokI)), sequence (chain, as listed by the source): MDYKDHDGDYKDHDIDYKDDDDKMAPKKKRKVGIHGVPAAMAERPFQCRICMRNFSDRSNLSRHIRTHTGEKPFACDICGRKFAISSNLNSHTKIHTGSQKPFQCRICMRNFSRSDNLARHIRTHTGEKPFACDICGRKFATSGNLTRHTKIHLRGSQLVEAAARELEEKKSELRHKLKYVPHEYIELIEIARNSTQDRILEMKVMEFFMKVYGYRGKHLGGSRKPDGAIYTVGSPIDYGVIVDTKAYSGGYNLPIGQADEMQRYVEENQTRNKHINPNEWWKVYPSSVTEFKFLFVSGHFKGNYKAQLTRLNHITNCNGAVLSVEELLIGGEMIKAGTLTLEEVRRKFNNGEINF
CCR5 ZFN SBS#8266, L7a linker (artificial (zinc finger-FokI)), sequence (chain, as listed by the source): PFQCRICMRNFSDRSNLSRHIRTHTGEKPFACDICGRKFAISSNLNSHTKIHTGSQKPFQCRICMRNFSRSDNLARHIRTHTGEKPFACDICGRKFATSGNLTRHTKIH

In data set [1], CCR5 ZFN target, 4 bp gap showed an activity of 1.2 % NHEJ.
On to CCR5 ZFN target, 5 bp gap, for which the figures for the activity in data set [2] and in data set [1] were 39.3 % NHEJ and 35 % NHEJ, respectively.
On to rat IgM target, 6 bp gap, for which the values for the activity in data set [3] and in data set [4] were 1.93 % NHEJ and 2.43 % NHEJ, respectively.
Consider CCR5 ZFN target, 7 bp gap, for which the activity in data set [2] stood at 5.1 % NHEJ; in data set [5] (average of 2), 39.6 % NHEJ.
Take CCR5 ZFN target, 8 bp gap: in data set [5] (average of 2 as printed), the activity came to 6.1 % NHEJ.
Turning to mROSA target, 6 bp gap, the activity was 7.5 % NHEJ in data set [6] and 22.6 % NHEJ in data set [7].
Take CCR5 ZFN target, 6 bp gap: the activity in data set [2] is 25.4 % NHEJ; in data set [5] (average of 2) it was 31.8 % NHEJ; in data set [1], 11.1 % NHEJ.

For the origin of these results see US20090305419.
